IDO1 catalytic activity after the heme transfer reaction with the TC-GAPDH-heme complex and decrease in heme content of TC-GAPDH (UV-vis) after 30 min data for 1 substance are collected here from PMC12329532.

For this test, the target named is N-terminally His6-tagged human IDO1 (indoleamine 2,3-dioxygenase 1), purified apo-IDO1 (human) (UniProt P14902).
Sequence of N-terminally His6-tagged human IDO1 (indoleamine 2,3-dioxygenase 1), purified apo-IDO1 (human) (P14902 whole entry): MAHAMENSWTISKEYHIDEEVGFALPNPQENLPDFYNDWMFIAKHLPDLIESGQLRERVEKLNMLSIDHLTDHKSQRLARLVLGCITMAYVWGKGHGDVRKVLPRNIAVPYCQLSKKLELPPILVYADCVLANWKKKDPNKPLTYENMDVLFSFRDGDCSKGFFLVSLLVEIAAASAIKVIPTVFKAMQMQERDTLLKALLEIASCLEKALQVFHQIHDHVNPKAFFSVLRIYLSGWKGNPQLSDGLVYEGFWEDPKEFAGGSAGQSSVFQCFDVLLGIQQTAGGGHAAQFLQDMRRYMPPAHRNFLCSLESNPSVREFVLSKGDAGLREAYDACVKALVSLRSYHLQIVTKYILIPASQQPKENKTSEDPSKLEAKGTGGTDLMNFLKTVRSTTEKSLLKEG

“human recombinant TC-GAPDH (GAPDH with a tetra-Cys insertion sequence near its heme binding site), wild type, purified (from UniProt P04406 1-335) (enzyme)” yielded an IDO1 catalytic activity after the heme transfer reaction with the TC-GAPDH-heme complex of 2 fold; a decrease in heme content of TC-GAPDH (UV-vis) after 30 min at 37 °C with apo-IDO1 and separation by gel filtration of 50%.
